Data taken from publication PMC2674928, “The SARS-Unique Domain (SUD) of SARS Coronavirus Contains Two Macrodomains That Bind G-Quadruplexes”.

Tests used:
[1] = molecular target: SUD_(core), the core of the SARS-unique domain (Nsp3 residues 389-652) of SARS coronavirus (SARS coronavirus (strain TOR2)); assay: crystal structure
[2] = molecular target: SUD-M (SARS coronavirus strain TOR2, UniProt P0C6U8 1343-1470); assay: ZIGE (gel shift); settings: protein: recombinant; tags: N-terminal His-tag, factor Xa site linker; G4 (oligo(G) known to form quadruplexes)
[3] = molecular target: SUD-N (SARS coronavirus strain TOR2, UniProt P0C6U8 1207-1342); assay: ZIGE (gel shift); settings: protein: recombinant; tags: N-terminal His-tag, factor Xa site linker; G4 (oligo(G) known to form quadruplexes)
[4] = molecular target: SUDcore (SUDc5b) (SARS coronavirus strain TOR2, UniProt P0C6U8 1207-1470); assay: ZIGE (gel shift); 100 mM KCl; settings: protein: recombinant; tags: N-terminal His-tag, factor Xa site linker; chain copies: 2; G4
[5] = molecular target: full-length SUD (Nsp3c) (SARS coronavirus strain TOR2, UniProt P0C6U8 1207-1544); assay: ZIGE (gel shift); 100 mM KCl; settings: protein: recombinant; tags: N-terminal His-tag, factor Xa site linker; G4

For “SUD_(core), the core of the SARS-unique domain (Nsp3 residues 389-652) of SARS coronavirus (domain or fragment)”, the stoichiometry N [1] was 2.

GGGGGGGGGG (structured_DNA) [(dG)10]: binds [2]; binds [3].

GGGCGCGGGAGGAATTGGGCGGG (structured_DNA) [Bcl-2 promoter G4]: binds [4]; binds [5].

UGGGGGGAGGGAGGGAGGGA (structured_RNA) [elastin 3'-NTR RNA G4]: binds [4]; binds [5].

UGGGGU (structured_RNA) [UG4U]: binds [4].
